{"source": "patent US20240272082A1", "about": "(ARIZONA BOARD OF REGENTS ON BEHALF OF ARIZONA STATE …, published 2024)", "binders": {"B1": {"name": "SG pep2-8-2478 (M13 phage-displayed peptide, fused to pVIII) (peptide)", "peptide": "SGTVFTSWEEYLDWV", "modifications": "not fully specified", "notes": "Samples A and B are identical replicates prepared separately; also called Sample 5A; Sample 5B; not shown: M13 major coat protein pVIII (display carrier) and any linker between peptide and pVIII"}}, "key": {"[1]": {"target": "T1, proprotein convertase subtilisin/kexin type 9 (PCSK9) (UniProt Q8NBP7 31-692, limits assumed)", "T1 construct": "Analyte in solution in both CSOD and SPR; also called PCSK9 protein", "T1 sequence (Q8NBP7 31-692 limits assumed)": "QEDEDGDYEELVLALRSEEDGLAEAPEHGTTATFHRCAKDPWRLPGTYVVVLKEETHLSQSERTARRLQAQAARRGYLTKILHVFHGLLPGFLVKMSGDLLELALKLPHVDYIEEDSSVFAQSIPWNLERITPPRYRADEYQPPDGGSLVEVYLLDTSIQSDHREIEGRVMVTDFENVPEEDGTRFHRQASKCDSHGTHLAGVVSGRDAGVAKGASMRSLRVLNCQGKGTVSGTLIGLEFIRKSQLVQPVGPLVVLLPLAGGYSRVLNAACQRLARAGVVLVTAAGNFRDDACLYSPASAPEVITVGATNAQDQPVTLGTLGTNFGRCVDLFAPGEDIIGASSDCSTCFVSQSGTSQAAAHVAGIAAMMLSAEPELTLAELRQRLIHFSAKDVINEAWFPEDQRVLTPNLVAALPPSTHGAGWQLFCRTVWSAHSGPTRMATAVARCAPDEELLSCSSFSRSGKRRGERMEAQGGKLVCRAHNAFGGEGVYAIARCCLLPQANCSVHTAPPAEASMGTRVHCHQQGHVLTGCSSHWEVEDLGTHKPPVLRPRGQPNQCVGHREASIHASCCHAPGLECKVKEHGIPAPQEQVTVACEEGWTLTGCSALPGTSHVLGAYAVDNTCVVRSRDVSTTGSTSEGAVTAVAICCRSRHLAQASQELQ", "assay": "CSOD; comparison of KD values of Table 2"}, "[2]": {"target": "T1, proprotein convertase subtilisin/kexin …", "assay": "CSOD; phage immobilised on fiber probe, PCSK9 in solution, global first-order fit", "description": "The fiber probes were switched from a well containing a buffer to a well containing PCSK9 at 0 s for the measurement of the association process (downward facing arrow) and then switched back to the buffer well at the time indicated by the upward facing arrow for the measurement of the dissociation process.\nThe binding of different concentrations of PCSK9 proteins to the functionalized probes was studied in a 40-time diluted PBS buffer. For each measurement, a baseline was first established by dipping the functionalized fiber tip into a microplate well with a buffer; then, the fiber was switched to another well containing PCSK9 protein solution to measure the association curve. Finally, the fiber was moved back to the buffer well and the dissociation process was recorded. By fitting the kinetic curves at different concentrations globally with first order kinetics using Scrubber v.2.0c, the association rate constants (ka), dissociation rate constants (kd), and equilibrium constants (KD) for all samples are summarized in Table 2."}}, "note": "“And” between values parts separate entries of the source, which are not always exact repeats. Identical values can stand only once. No end group written: not given here.", "data": [{"binder": "B1", "values": [{"measurement": "fold affinity change against Sample #4 (no SG pep2-8-2478)", "setting": "[1]", "result": "~2", "unit": "fold"}, {"measurement": "Kd", "setting": "[2]", "result": "370 nM and 380 nM"}, {"measurement": "koff", "setting": "[2]", "result": "0.00154 s⁻¹ and 0.00119 s⁻¹"}, {"measurement": "kon", "setting": "[2]", "result": "4200 M⁻¹ s⁻¹ and 3130 M⁻¹ s⁻¹"}]}]}
